From publication PMC7042354, “Distinct surfaces on Cdc5/PLK Polo-box domain orchestrate combinatorial substrate recognition during cell division” (Scientific Reports, 2020)
Square brackets hold non-standard residues; d marks the D form. Ends that are not written are not given here. pS = N[C@@H](COP(=O)(O)O)C(=O)O

How the values were obtained:
[1] = test system: cdc5-S630Q mutant; assay: Proliferation assay (spot dilution) of cdc5 mutants with DNA damaging agents; format: cell-based, Saccharomyces cerevisiae; conditions: 0.4 μM 4-NQO on YPAD, 23 °C, n = 5
Experimental: All yeast strains used in this study were constructed in the W303 background and their relevant genotypes are summarized in (Supplemental Table 2). Standard conditions and procedures were used for yeast growth, sporulation and tetrad dissection. Growth of temperature-sensitive (ts) mutants in liquid media was performed at 23 °C (permissive temperature) and 37 °C (non-permissive temperature).
The temperature-sensitive (ts) growth behavior of cdc5 mutants was monitored on solid YPAD medium at the following temperatures: 23, 30 and 37.5 °C. Their sensitivity to DNA replication inhibitors and DNA damaging agents was assessed at 23 °C on YPAD medium containing either 100 mM hydroxyurea (HU) or 0.4 μM 4-nitroquinoline N-oxide (4-NQO). In all cases, cultures of yeast strains were diluted fivefold and subsequently spotted on solid medium, using a starting OD600 of 0.2 in the first dilution. Yeast were allowed to grow for approximately 36–72 hours at the indicated temperatures prior to scanning plates. The experiment was repeated 5 times (n = 5).

[2] = target: T1, polo-box domain of Cdc5 (residues 418–705) (Saccharomyces cerevisiae, UniProt P32562 418-705); assay: ITC; Nano ITC; 30 µM protein in the chamber cell, 280 µM peptide in the syringe; storage buffer (50 mM TRIS-HCl pH 7.0, 200 mM NaCl, 1.4 mM 2-mercaptoethanol, 5% glycerol) with 20 mM EDTA pH 8.0; conditions: both partners purified
T1 construct: Cdc5, Polo-like kinase of Saccharomyces cerevisiae, residues 418-705 (polo-box domain with the preceding extension), subcloned in pPROEX HTa; Residues 418-459 disordered in the crystal; loop 594-601 possibly cleaved during crystallization of the apo form; also called Cdc5^PBD; PBD of Cdc5
T1 sequence (looked up): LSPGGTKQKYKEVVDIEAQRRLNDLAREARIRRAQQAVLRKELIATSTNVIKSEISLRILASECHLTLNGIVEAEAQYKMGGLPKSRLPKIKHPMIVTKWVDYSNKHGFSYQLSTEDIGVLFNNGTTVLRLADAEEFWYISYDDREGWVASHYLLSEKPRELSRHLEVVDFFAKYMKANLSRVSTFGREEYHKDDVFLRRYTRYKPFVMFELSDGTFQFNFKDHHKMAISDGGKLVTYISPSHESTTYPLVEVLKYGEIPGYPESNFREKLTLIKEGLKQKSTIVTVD

[3] = target: T1, polo-box domain of Cdc5 (residues …); assay: crystal structure; Cdc5 polo-box domain (5 mg/mL) mixed with Dbf4 peptide at 1:10 protein:peptide, overnight at 4 °C; crystals in 20% PEG 3350, 200 mM sodium potassium tartrate, 10 mM trimethylamine hydrochloride; conditions: both partners purified
[4] = target: T2, polo-box domain of Cdc5 pre-incubated with the Dbf4 peptide (Cdc5-Dbf4) (Saccharomyces cerevisiae | S. cerevisiae, UniProt P32562 418-705); assay: saturation-transfer difference (STD) NMR and 1D 1H NMR chemical shifts; ternary sample: 20 µM Cdc5 with both Dbf4 and Spc72^P peptides (500 µM); 20 mM sodium phosphate pH 7.0, 200 mM NaCl, 20 mM EDTA, >99% D2O; 298 K; conditions: both partners purified
T2 construct: Cdc5, Polo-like kinase of Saccharomyces cerevisiae, residues 418-705; Dbf4 of budding yeast, residues 73-96

[5] = target: T1, polo-box domain of Cdc5 (residues …); assay: crystal structure; Cdc5 polo-box domain (5 mg/mL) mixed with Spc72^P at 1:15 protein:peptide, overnight at 4 °C; crystals in 100 mM Bis-TRIS pH 6.5, 25% PEG3350, 200 mM MgCl2, 100 mM CsCl; conditions: both partners purified

## O=[N+]([O-])c1cc[n+]([O-])c2ccccc12 [4-NQO, 4-nitroquinoline 1-oxide]
[1]; 36–72 h
  growth of cdc5-S630Q mutant in presence of agent: very little or no growth
[1]
  hypersensitivity of cdc5-S630Q mutant compared with smc5-6 cells: comparable to that of cells defective in the Smc5-6 complex

B1: Dbf4-derived peptide (73-96) (peptide)
peptide: EKKRARIERARSIEGAVQVSKGTG
notes: Dbf4, regulatory subunit of the Dbf4-dependent kinase of budding yeast, residues 73-96; Peptide used for ITC and NMR; also called Dbf4 peptide; source: synthetic peptide, bought: GenScript
[2]
  Kd: ~500 nM

B2: Dbf4-derived peptide (76-96) from the polo-interacting region of Dbf4 (peptide)
peptide: RARIERARSIEGAVQVSKGTG
notes: Dbf4, regulatory subunit of the Dbf4-dependent kinase of budding yeast, residues 76-96; Peptide used for crystallization; also called Dbf4 peptide; source: synthetic peptide, bought: GenScript
[3]
  binding result: binds

B3: Spc72^P phosphorylated peptide (printed as 222-237) (peptide)
peptide: DKEEFLSLAQS[pS]PAGSQ
notes: Spc72, spindle pole body protein of budding yeast; Peptide used for ITC and NMR; also called Scp72^P; Spc72^P peptide; source: synthetic peptide, bought: GenScript
[2]
  binding result: binds
[4]
  binding result: binds

B4: Spc72^P phosphorylated peptide (227-237) derived from the spindle-pole body protein Spc72 (peptide)
peptide: SLAQS[pS]PAGSQ
notes: Spc72, spindle pole body protein of budding yeast, residues 227-237; Peptide used for crystallization; also called Spc72^P phosphopeptide; source: synthetic peptide, bought: GenScript
[5]
  binding result: binds
